Laboratory results reported in paper PMC3989220.
Like-named read-outs stand apart in the source and are kept apart here.

How the values were obtained:
[1] = target: GKRP (Rattus norvegicus) (UniProt Q07071); conditions: cited from earlier work
[2] = target: Glucokinase (GK) cloned from rat hypothalamic tanycyte cultures, recombinant (rat) (UniProt P17712)
[3] = target: Glucokinase (GK) cloned from rat hypothalamic tanycyte cultures, recombinant (rat) (UniProt P17712); experiment: enzyme inhibition kinetics (glucose-6-phosphate dehydrogenase-coupled GK activity assay, Segel plot); GK saturation curves with glucose in the presence of 0.1 and 0.2 µM purified GKRP; 200 mM Tris-HCl pH 7.5, 2 mM MgCl2, 1 mM DTT, 1 mM ATP, 0.5 mM NADP+, 37°C, 5 min; Ki from Segel's graph for an allosteric modulator of a cooperative enzyme
[4] = target: Glucokinase (GK) cloned from rat hypothalamic tanycyte cultures, recombinant (rat) (UniProt P17712); experiment: as above; remark: listed apart in the source

UniProt Q07071, sequence (Q07071 whole entry): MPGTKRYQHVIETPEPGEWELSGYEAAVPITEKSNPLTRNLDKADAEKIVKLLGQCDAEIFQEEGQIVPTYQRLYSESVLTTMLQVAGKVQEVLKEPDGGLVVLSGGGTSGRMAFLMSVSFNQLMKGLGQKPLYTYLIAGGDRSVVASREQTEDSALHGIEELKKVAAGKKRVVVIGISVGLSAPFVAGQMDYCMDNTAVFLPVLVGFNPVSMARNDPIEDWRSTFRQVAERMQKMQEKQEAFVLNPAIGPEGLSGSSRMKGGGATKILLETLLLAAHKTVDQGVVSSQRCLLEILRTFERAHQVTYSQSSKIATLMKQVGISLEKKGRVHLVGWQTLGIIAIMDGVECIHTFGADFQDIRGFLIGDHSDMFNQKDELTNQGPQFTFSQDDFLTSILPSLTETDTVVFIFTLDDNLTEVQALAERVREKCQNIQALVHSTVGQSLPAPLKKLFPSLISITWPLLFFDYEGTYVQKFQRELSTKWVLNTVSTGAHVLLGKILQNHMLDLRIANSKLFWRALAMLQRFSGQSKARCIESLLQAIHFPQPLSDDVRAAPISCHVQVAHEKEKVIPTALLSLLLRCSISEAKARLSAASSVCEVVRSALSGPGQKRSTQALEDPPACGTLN

Substance	Ki [1] [nM]	GK activity (glucose-6-phosphate dehydrogenase-coupled assay) at 5 min with 10 mM glucose and 0.05-0.25 µM GKRP; IC50 by nonlinear extrapolation [2] [mM]	Ki [3] [nM]	Ki [4] [µM]
Glucokinase (from UniProt P17712)	1000	–	–	–
Glucokinase regulatory protein (GKRP) cloned from rat hypothalamic tanycyte cultures, recombinant (from UniProt Q07071 1-627) (natural protein)	–	0.28	210	210
